For orientation: stoichiometry N means the number of molecules, sites or subunits per partner or assembly.

This note sets out measurements from paper doi:10.1101/2022.03.06.483192, “Structural maturation of SYCP1-mediated meiotic chromosome synapsis through conformational remodelling by molecular adapter SYCE3” (bioRxiv, 2022).

The labels stand for the following.
B1: SYCP1αN (domain or fragment, UniProt Q15431 101-362, looked up)
chain: GLSRVYSKLYKEAEKIKKWKVSTEAELRQKESKLQENRKIIEAQRKAIQELQFGNEKVSLKLEEGIQENKDLIKENNATRHLCNLLKETCARSAEKTKKYEYEREETRQVYMDLNNNIEKMITAFEELRVQAENSRLEMHFKLKEDYEKIQHLEQEYKKEINDKEKQVSLLLIQITEKENKMKDLTFLLEESRDKVNQLEEKTKLQSENLKQSIEKQHHLTKELEDIKVSLQRSVSTQKALEEDLQIATKTICQLTEEKETQ
notes: SYCP1 α-helical N-terminal region (αN), amino-acids 101-362; also called SYCP1's full α-helical N-terminal region (amino-acids 101-362); source: E. coli BL21(DE3), purified; alone or co-expressed with SYCE3
B2: SYCP1 αCore-ΔNtip (domain or fragment, UniProt Q15431 112-783, looked up)
chain: EAEKIKKWKVSTEAELRQKESKLQENRKIIEAQRKAIQELQFGNEKVSLKLEEGIQENKDLIKENNATRHLCNLLKETCARSAEKTKKYEYEREETRQVYMDLNNNIEKMITAFEELRVQAENSRLEMHFKLKEDYEKIQHLEQEYKKEINDKEKQVSLLLIQITEKENKMKDLTFLLEESRDKVNQLEEKTKLQSENLKQSIEKQHHLTKELEDIKVSLQRSVSTQKALEEDLQIATKTICQLTEEKETQMEESNKARAAHSFVVTEFETTVCSLEELLRTEQQRLEKNEDQLKILTMELQKKSSELEEMTKLTNNKEVELEELKKVLGEKETLLYENKQFEKIAEELKGTEQELIGLLQAREKEVHDLEIQLTAITTSEQYYSKEVKDLKTELENEKLKNTELTSHCNKLSLENKELTQETSDMTLELKNQQEDINNNKKQEERMLKQIENLQETETQLRNELEYVREELKQKRDEVKCKLDKSEENCNNLRKQVENKNKYIEELQQENKALKKKGTAESKQLNVYEIKVNKLELELESAKQKFGEITDTYQKEIEDKKISEENLLEEVEKAKVIADEAVKLQKEIDKRCQHKIAEMVALMEKHKHQYDKIIEERDSELGLYKSKEQEQSSLRASLEIELSNLKAELLSVKKQLEIEREEKEKLKREAKE
notes: SYCP1 α-helical core without the αNtip, amino-acids 112-783; tetramer alone by SEC-MALS; also called SYCP1's full α-helical core, in which αNtips were deleted (amino-acids 112-783); source: E. coli BL21(DE3), purified; alone or in complex with SYCE3
B3: SYCP1αNcore (domain or fragment, UniProt Q15431 206-362, looked up)
chain: ETRQVYMDLNNNIEKMITAFEELRVQAENSRLEMHFKLKEDYEKIQHLEQEYKKEINDKEKQVSLLLIQITEKENKMKDLTFLLEESRDKVNQLEEKTKLQSENLKQSIEKQHHLTKELEDIKVSLQRSVSTQKALEEDLQIATKTICQLTEEKETQ
notes: SYCP1 tetrameric core (αNcore), amino-acids 206-362; tetramer alone by SEC-MALS; two chains in the 2:1 complex with SYCE3; also called SYCP1 tetrameric core; SYCP1αNT; source: E. coli BL21(DE3), purified (amylose, TEV cleavage, anion exchange, SEC); alone or co-expressed with SYCE3; not shown: MBP, N-terminal, cleaved
B4: SYCE3 12-88 (domain or fragment, UniProt A1L190 12-88, looked up)
chain: DNMLKMLSDLNKDLEKLLEEMEKISVQATWMAYDMVVMRTNPTLAESMRRLEDAFVNCKEEMEKNWQELLHETKQRL
notes: SYCE3 residues 12-88; source: E. coli BL21(DE3), co-expressed with SYCP1αNcore, complex purified
B5: SYCE3 (natural protein, UniProt A1L190 1-88, looked up)
chain: MDDADPEERNYDNMLKMLSDLNKDLEKLLEEMEKISVQATWMAYDMVVMRTNPTLAESMRRLEDAFVNCKEEMEKNWQELLHETKQRL
notes: SYCE3, wild type; dimer alone by SEC-MALS; one chain in the 2:1 complex with SYCP1; also called SYCE3 wild-type; free SYCE3; source: alone or co-expressed with SYCP1 constructs; not shown: His, N-terminal, cleaved
B6: His-SYCE3 (natural protein, UniProt A1L190 1-88, looked up)
chain: B5 chain
notes: SYCE3, wild type; SYCE3 1-88 (human) was cloned for the two-hybrid; also called SYCE3 wild-type (WT); source: E. coli BL21(DE3), co-expressed with MBP fusions; in lysate for pull-downs, co-purified (amylose, anion exchange, SEC); not shown: His, N-terminal, kept

Series [1] deals with the molecule itself. As to the kind of experiment: SEC-MALS; purified proteins or co-expressed, purified complexes at 5-20 mg/ml; Superdex 200 Increase 10/300 GL, 20 mM Tris pH 8.0, 150 mM KCl, 2 mM DTT. For orientation: SEC sorts molecules by how far they enter the pores of the column.
Series [2] concerns the target B3. Described as above. The conditions noted are these: both partners purified.
Series [3] has as its target B3. As to the kind of experiment: ITC; SYCE3 (400 µM) injected into SYCP1αNcore (70 µM); 30°C; 25 mM Tris pH 8.0, 250 mM KCl, 2 mM DTT; apparent. Conditions: both partners purified. (Isothermal titration calorimetry measures the heat released or taken up as one component is titrated into another.)
For series [4], the target named is T1, SYCE2-TEX12core, labelled (UniProt Q6PIF2 57-165; Q9BXU0 49-123, labelled with the Monolith NT Protein Labelling Kit RED (which chain is not told) | labelled with the Monolith NT Protein Labelling Kit RED (which chain is not told)).
T1 construct: SYCE2 structural core; TEX12 structural core; source: E. coli BL21(DE3), purified
T1 sequence (looked up) 1: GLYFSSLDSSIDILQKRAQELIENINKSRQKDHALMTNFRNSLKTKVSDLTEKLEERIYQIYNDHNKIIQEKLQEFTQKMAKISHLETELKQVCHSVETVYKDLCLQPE
T1 sequence (looked up) 2: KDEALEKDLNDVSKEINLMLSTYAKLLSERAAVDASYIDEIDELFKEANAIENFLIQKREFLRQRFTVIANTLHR
As to the kind of experiment: MST; SYCE3 titrated (1:1 dilutions) into 150 nM labelled SYCE2-TEX12core; Monolith NT.115, premium treated capillaries, excitation and MST power 40 %; apparent. Conditions: both partners purified.

The series “SYCP1 αCore-ΔNtip” concerns the target B2. As to the kind of experiment: SEC-MALS; purified proteins or co-expressed, purified complexes at 5-20 mg/ml; Superdex 200 Increase 10/300 GL, 20 mM Tris pH 8.0, 150 mM KCl, 2 mM DTT. Conditions: both partners purified.
The series “SYCP1αN” concerns the target B1. The description is as above. Conditions: both partners purified.
The next series concerns the target T2, SYCP1αN V105E L109E (UniProt Q15431 101-362, V105E | L109E).
T2 construct: SYCP1αN, amino-acids 101-362, with V105E L109E; source: E. coli BL21(DE3), complex with SYCE3
T2 sequence (looked up): B1 chain with V5E, L9E
Described as above. Conditions: both partners purified.

The target in the next series is T3, SYCP1αN ΔNtip (UniProt Q15431 112-362).
T3 construct: SYCP1αN (101-362) with the αNtip (amino-acids 101-111) deleted; also called SYCP1 ΔNtip; source: E. coli BL21(DE3), co-expressed with SYCE3, complex purified
T3 sequence (looked up): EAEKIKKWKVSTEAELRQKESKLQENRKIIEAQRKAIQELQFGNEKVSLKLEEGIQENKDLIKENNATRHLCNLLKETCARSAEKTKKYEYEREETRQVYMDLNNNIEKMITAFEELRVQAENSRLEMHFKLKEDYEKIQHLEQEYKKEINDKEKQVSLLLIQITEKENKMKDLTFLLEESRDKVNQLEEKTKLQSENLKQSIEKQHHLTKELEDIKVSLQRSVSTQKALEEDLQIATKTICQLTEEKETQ
Described as above. The conditions noted are these: both partners purified.

For the next series, the target named is T4, MBP-SYCP1αN (UniProt Q15431 101-362).
T4 construct: SYCP1αN, amino-acids 101-362; source: E. coli BL21(DE3), co-expressed with His-SYCE3, complex purified
T4 sequence (looked up): B1 chain
As to the kind of experiment: SEC-MALS; MBP-SYCP1αN-His-SYCE3 complex on a Superose 6 increase 10/300 GL column. The conditions noted are these: both partners purified.

The next series concerns the target T5, MBP-SYCP1αNcore (UniProt Q15431 206-362).
T5 construct: SYCP1 tetrameric core (αNcore), amino-acids 206-362; also called MBP-SYCP1 (amino-acids 206-362); source: E. coli BL21(DE3), co-expressed with SYCE3 constructs; in lysate for the pull-down, co-purified (amylose, anion exchange, SEC); not shown: MBP, N-terminal, kept
T5 sequence (looked up): B3 chain
As to the kind of experiment: SEC-MALS; purified proteins or co-expressed, purified complexes at 5-20 mg/ml; Superdex 200 Increase 10/300 GL, 20 mM Tris pH 8.0, 150 mM KCl, 2 mM DTT. The conditions noted are these: both partners purified.

Positions count from the first letter of the chain named. Where “and” joins values, the source holds several entries; their conditions need not be identical. Equal values may be shown once.

B1: the binding result in series [1] was “binds”.

As for B2, the “stoichiometry N” value in series [1] was determined as 4.

B3: the “stoichiometry N” value in series [1] came to 4.

Turning to B4, the “stoichiometry N” value in the series with SYCP1αNcore [2] was 2 SYCP1 chains per SYCE3 chain.

Turning to B5, the Kd worked out at 0.17 µM with SYCP1αNcore [3] and 21.8 µM in [4]. The “stoichiometry N” value is 2 SYCP1 chains per SYCE3 chain with SYCP1 αCore-ΔNtip; 2 SYCP1 chains per SYCE3 chain (2:1 species) and 2 SYCP1 chains per SYCE3 chain (4:2 species: 4 SYCP1, 2 SYCE3) with SYCP1αN; 2 in series [1]; 2 SYCP1 chains per SYCE3 chain in the series with SYCP1αN V105E L109E; 2 SYCP1 chains per SYCE3 chain in the series with SYCP1αNcore [2]; 2 SYCP1 chains per SYCE3 chain with SYCP1αN ΔNtip.

Take B6: the “stoichiometry N” value in the series with MBP-SYCP1αN was 2 SYCP1 chains per SYCE3 chain (2:1 species) and 2 SYCP1 chains per SYCE3 chain (4:2 species: 4 SYCP1, 2 SYCE3); in the series with MBP-SYCP1αNcore, 2 SYCP1 chains per SYCE3 chain.
